The results in this text go back to paper PMC12513996 (Nature Communications, 2025).

B1: Trx-tagged ATG16L1(78–247) (domain or fragment)
chain: NDNQLQEMAQLRIKHQEELTELHKKRGELAQLVIDLNNQMQRKDREMQMNEAKIAECLQTISDLETECLDLRTKLCDLERANQTLKDEYDALQITFTALEGKLRKTTEENQELVTRWMAEKAQEANRLNAENEKDSRRRQARLQKELAEAAKEPLPVEQDDDIEVIVDET
B2: FIP200(1490–1594) (domain or fragment)
chain: SRHSEKIAIRDFQVGDLVLIILDERHDNYVLFTVSPTLYFLHSESLPALDLKPGEGASGASRRPWVLGKVMEKEYCQAKKAQNRFKVPLGTKFYRVKAVSWNKKV
B3: FIP200(1490–1594) of the crystallised FIP200 Claw/ATG16L1 FIR complex (domain or fragment)
chain: B2 chain
B4: Trx-tagged ATG16L1 FIR (domain or fragment)
chain: EQDDDIEVIVDET
B5: ATG16L1(235–247) of the crystallised FIP200 Claw/ATG16L1 FIR complex (peptide)
chain: EQDDDIEVIVDET

For one data set, the target named is GST-[…]1 (human, UniProt Q9H0R8 1-117). Briefly: SEC. (In general: In gel filtration, larger molecules generally elute earlier.)
GST-[…]1, sequence (Q9H0R8 whole entry): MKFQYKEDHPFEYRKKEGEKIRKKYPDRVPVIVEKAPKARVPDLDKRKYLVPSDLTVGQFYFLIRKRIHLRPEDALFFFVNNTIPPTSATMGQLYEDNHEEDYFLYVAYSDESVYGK
The target of another data set is ATG16L1(78–247) (human, UniProt Q676U5 78-247). In words: SEC-MALS.
The data set “crystal structure” deals with the molecule itself. Briefly: crystal structure.
The data set “FIP200(1490–1594)” has as its target B2. In words: SEC.
For data set [1], the target named is B3. Briefly: crystal structure.

B1: in the data set with GST-[…]1, the binding result was “binds”.

The stoichiometry N is a count of units in the complex or per binding partner. B2: the “stoichiometry N” value with ATG16L1(78–247) was 1.

Turning to B3, the “stoichiometry N” value in “crystal structure” turned out to be 2.

Regarding B4, the binding result with FIP200(1490–1594) was “binds”.

B5: the binding result in data set [1] is listed as “binds”.
